Target: CM1021 (human) (UniProt P02768)
Assay: SDS-PAGE without and with reduction

CM1021, sequence (P14210 whole entry, looked up, the tested form may be a part): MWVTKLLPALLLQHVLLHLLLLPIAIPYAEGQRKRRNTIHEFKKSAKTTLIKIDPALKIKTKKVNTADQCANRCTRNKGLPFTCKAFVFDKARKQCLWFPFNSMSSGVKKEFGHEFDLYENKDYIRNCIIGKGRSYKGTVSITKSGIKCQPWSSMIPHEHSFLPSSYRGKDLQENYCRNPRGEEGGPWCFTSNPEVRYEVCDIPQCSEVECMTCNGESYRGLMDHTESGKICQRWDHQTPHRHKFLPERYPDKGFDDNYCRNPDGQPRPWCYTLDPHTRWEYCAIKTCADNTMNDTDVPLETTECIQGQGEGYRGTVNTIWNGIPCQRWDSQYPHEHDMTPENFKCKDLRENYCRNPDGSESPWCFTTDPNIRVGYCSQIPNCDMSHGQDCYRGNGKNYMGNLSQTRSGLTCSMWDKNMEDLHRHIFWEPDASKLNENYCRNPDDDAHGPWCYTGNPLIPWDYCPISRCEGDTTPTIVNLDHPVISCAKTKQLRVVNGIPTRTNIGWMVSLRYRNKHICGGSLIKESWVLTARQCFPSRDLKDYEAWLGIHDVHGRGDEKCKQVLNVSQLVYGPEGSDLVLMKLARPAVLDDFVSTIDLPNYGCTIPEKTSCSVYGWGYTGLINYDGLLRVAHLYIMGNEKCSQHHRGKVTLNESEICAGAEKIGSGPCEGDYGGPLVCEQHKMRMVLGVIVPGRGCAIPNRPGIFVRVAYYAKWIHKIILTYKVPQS
CM1021, sequence (P02768 whole entry, looked up, the tested form may be a part): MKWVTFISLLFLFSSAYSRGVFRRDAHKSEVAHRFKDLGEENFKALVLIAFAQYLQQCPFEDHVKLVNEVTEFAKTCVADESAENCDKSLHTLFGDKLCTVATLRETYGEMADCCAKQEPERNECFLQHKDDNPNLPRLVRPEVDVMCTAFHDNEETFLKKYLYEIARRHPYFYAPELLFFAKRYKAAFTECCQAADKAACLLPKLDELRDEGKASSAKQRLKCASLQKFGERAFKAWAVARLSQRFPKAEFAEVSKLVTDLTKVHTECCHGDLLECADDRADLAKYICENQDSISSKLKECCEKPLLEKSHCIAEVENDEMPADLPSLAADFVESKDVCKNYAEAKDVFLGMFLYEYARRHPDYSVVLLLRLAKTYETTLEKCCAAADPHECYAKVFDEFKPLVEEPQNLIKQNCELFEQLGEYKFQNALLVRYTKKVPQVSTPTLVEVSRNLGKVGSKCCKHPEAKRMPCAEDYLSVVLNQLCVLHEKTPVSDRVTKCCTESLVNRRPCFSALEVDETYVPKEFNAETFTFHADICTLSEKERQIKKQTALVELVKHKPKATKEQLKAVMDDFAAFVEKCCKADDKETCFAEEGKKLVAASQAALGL

stoichiometry N: 2
Substance: CM1021 (from UniProt P02768 1-18; P14210 124-210) (Fc fusion)
